{"source": "IntAct's records for PubMed 16766694", "parents": {"B1": {"name": "Pyridoxal 5'-phosphate synthase subunit PDX1.3 (Arabidopsis thaliana (Mouse-ear cress)), Q8L940 (parent)", "chain": "MEGTGVVAVYGNGAITEAKKSPFSVKVGLAQMLRGGVIMDVVNAEQARIAEEAGACAVMALERVPADIRAQGGVARMSDPQMIKEIKQAVTIPVMAKARIGHFVEAQILEAIGIDYIDESEVLTLADEDHHINKHNFRIPFVCGCRNLGEALRRIREGAAMIRTKGEAGTGNIIEAVRHVRSVNGDIRVLRNMDDDEVFTFAKKLAAPYDLVMQTKQLGRLPVVQFAAGGVATPADAALMMQLGCDGVFVGSGIFKSGDPARRARAIVQAVTHYSDPEMLVEVSCGLGEAMVGINLNDEKVERFANRSE", "partner": "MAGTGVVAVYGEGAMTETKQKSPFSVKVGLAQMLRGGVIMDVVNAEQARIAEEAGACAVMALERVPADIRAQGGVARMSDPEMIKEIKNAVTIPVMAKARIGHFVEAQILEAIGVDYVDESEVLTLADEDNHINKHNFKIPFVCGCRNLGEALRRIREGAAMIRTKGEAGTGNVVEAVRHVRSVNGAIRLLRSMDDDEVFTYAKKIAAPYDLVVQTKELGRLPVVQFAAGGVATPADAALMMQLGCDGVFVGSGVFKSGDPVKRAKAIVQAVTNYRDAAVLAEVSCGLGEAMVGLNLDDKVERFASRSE"}, "B2": {"name": "Pyridoxal 5'-phosphate synthase subunit PDX1.3 (Arabidopsis thaliana (Mouse-ear cress)), Q8L940 (parent)", "chain": "B1 chain", "partner": "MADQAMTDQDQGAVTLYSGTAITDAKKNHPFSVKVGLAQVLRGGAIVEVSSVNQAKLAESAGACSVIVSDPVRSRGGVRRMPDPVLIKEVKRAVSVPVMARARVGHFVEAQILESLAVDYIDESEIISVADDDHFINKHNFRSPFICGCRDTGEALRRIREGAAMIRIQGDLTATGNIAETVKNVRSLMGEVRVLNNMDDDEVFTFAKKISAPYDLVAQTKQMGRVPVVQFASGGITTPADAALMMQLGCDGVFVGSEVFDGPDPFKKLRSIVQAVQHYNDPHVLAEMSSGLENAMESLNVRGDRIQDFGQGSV"}, "B3": {"name": "Pyridoxal 5'-phosphate synthase subunit PDX1.3 (Arabidopsis thaliana (Mouse-ear cress)), Q8L940 (parent)", "chain": "B1 chain", "partner": "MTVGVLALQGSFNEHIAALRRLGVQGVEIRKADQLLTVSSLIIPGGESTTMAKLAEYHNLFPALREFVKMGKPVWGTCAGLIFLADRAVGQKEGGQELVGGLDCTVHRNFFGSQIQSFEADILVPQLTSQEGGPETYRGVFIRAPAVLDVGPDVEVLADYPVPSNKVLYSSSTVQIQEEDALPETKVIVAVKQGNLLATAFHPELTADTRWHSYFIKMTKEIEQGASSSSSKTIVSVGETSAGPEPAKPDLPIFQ"}}, "data": [{"variants_of": "B1", "conditions": "with pdx11_arath PDX11, O80448", "values": [{"variant": "MEGTGVVAVYGNGAITEAKKSPFSVKVGLAQMLRGGVIMDVVNAEQARIAEEASACAVMALERVPADIRAQGGVARMSDPQMIKEIKQAVTIPVMAKARIGHFVEAQILEAIGIDYIDESEVLTLADEDHHINKHNFRIPFVCGCRNLGEALRRIREGAAMIRTKGEAGTGNIIEAVRHVRSVNGDIRVLRNMDDDEVFTFAKKLAAPYDLVMQTKQLGRLPVVQFAAGGVATPADAALMMQLGCDGVFVGSGIFKSGDPARRARAIVQAVTHYSDPEMLVEVSCGLGEAMVGINLNDEKVERFANRSE", "note": "[G54S]", "effect of a mutation on the interaction": "disrupting interaction"}]}, {"variants_of": "B2", "conditions": "with pdx12_arath PDX12, Q9ZNR6", "values": [{"variant": "MEGTGVVAVYGNGAITEAKKSPFSVKVGLAQMLRGGVIMDVVNAEQARIAEEASACAVMALERVPADIRAQGGVARMSDPQMIKEIKQAVTIPVMAKARIGHFVEAQILEAIGIDYIDESEVLTLADEDHHINKHNFRIPFVCGCRNLGEALRRIREGAAMIRTKGEAGTGNIIEAVRHVRSVNGDIRVLRNMDDDEVFTFAKKLAAPYDLVMQTKQLGRLPVVQFAAGGVATPADAALMMQLGCDGVFVGSGIFKSGDPARRARAIVQAVTHYSDPEMLVEVSCGLGEAMVGINLNDEKVERFANRSE", "note": "[G54S]", "effect of a mutation on the interaction": "disrupting interaction"}]}, {"variants_of": "B3", "conditions": "with pdx2_arath PDX2, Q8LAD0", "values": [{"variant": "MEGTGVVAVYGNGAITEAKKSPFSVKVGLAQMLRGGVIMDVVNAEQARIAEEASACAVMALERVPADIRAQGGVARMSDPQMIKEIKQAVTIPVMAKARIGHFVEAQILEAIGIDYIDESEVLTLADEDHHINKHNFRIPFVCGCRNLGEALRRIREGAAMIRTKGEAGTGNIIEAVRHVRSVNGDIRVLRNMDDDEVFTFAKKLAAPYDLVMQTKQLGRLPVVQFAAGGVATPADAALMMQLGCDGVFVGSGIFKSGDPARRARAIVQAVTHYSDPEMLVEVSCGLGEAMVGINLNDEKVERFANRSE", "note": "[G54S]", "effect of a mutation on the interaction": "disrupting interaction"}]}]}
